Measurements: the RNAGym collection of RNA variant scans (doi:10.1093/nar/gkz1192)

B1: CPEB3 Ribozyme (parent)
chain: UAACAGGGGGCCACAGCAGAAGCGUUCACGUCGCAGCCCCUGUCAGAUUCUGGUGAAUCUGCGAAUUCUGCUGUAUAUCUC

Variants of: B1
Test: self-cleavage, relative activity (ratio to wild type); higher = more cleavage; in vitro, sequencing
Method in brief: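 For each CPEB3 ribozyme variant, relative activity is its cleaved/total read fraction divided by the unmutated ribozyme's. Barcoded error-prone PCR libraries were transcribed by T7 RNA polymerase (5 hours, 37°C) and held in DNase I for 15 min before an EDTA stop, with cleavage occurring throughout. Template-switching reverse transcription and Illumina sequencing were used to read the RNAs. A 5-read minimum applied, and results are the mean of three batches.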

Row | Variant | self-cleavage
1 | UAACAGGGGGCCACAGCAGAGGCGUUCACGUCGCAGCCCCUGUCAGAUUCUGGUGAAUCUGCGAAUUCUGCUGUCUAUCUC [A21G A75C] | 0.62
2 | UAACAGGGGGCCACAGCAGAGGCGUUCACGUCGCAGCCCCUGUCAGAUUCUGGUGAAUCUGCGAAUUCUGCUGUGUAUCUC [A21G A75G] | 0.56
3 | UAACAGGGGGCCACAGCAGAGGCGUUCACGUCGCAGCCCCUGUCAGAUUCUGGUGAAUCUGCGAAUUCUGCUGUUUAUCUC [A21G A75U] | 0.72
4 | UAACAGGGGGCCACAGCAGAGGCGUUCACGUCGCAGCCCCUGUCAGAUUCUGGUGAAUCUGCGAAUUCUGCUGUAUCUCUC [A21G A77C] | 0.63
5 | UAACAGGGGGCCACAGCAGAGGCGUUCACGUCGCAGCCCCUGUCAGAUUCUGGUGAAUCUGCGAAUUCUGCUGUAUGUCUC [A21G A77G] | 0.66
6 | UAACAGGGGGCCACAGCAGAGGCGUUCACGUCGCAGCCCCUGUCAGAUUCUGGUGAAUCUGCGAAUUCUGCUGUAUUUCUC [A21G A77U] | 0.71
7 | UAACAGGGGGCCACAGCAGAGGAGUUCACGUCGCAGCCCCUGUCAGAUUCUGGUGAAUCUGCGAAUUCUGCUGUAUAUCUC [A21G C23A] | 0.32
8 | UAACAGGGGGCCACAGCAGAGGGGUUCACGUCGCAGCCCCUGUCAGAUUCUGGUGAAUCUGCGAAUUCUGCUGUAUAUCUC [A21G C23G] | 0.37
9 | UAACAGGGGGCCACAGCAGAGGUGUUCACGUCGCAGCCCCUGUCAGAUUCUGGUGAAUCUGCGAAUUCUGCUGUAUAUCUC [A21G C23U] | 0.2
10 | UAACAGGGGGCCACAGCAGAGGCGUUAACGUCGCAGCCCCUGUCAGAUUCUGGUGAAUCUGCGAAUUCUGCUGUAUAUCUC [A21G C27A] | 0.14
11 | UAACAGGGGGCCACAGCAGAGGCGUUUACGUCGCAGCCCCUGUCAGAUUCUGGUGAAUCUGCGAAUUCUGCUGUAUAUCUC [A21G C27U] | 0.18
12 | UAACAGGGGGCCACAGCAGAGGCGUUCAUGUCGCAGCCCCUGUCAGAUUCUGGUGAAUCUGCGAAUUCUGCUGUAUAUCUC [A21G C29U] | 0.28
13 | UAACAGGGGGCCACAGCAGAGGCGUUCACGUAGCAGCCCCUGUCAGAUUCUGGUGAAUCUGCGAAUUCUGCUGUAUAUCUC [A21G C32A] | 0.23
14 | UAACAGGGGGCCACAGCAGAGGCGUUCACGUGGCAGCCCCUGUCAGAUUCUGGUGAAUCUGCGAAUUCUGCUGUAUAUCUC [A21G C32G] | 0.23
15 | UAACAGGGGGCCACAGCAGAGGCGUUCACGUUGCAGCCCCUGUCAGAUUCUGGUGAAUCUGCGAAUUCUGCUGUAUAUCUC [A21G C32U] | 0.22
16 | UAACAGGGGGCCACAGCAGAGGCGUUCACGUCGGAGCCCCUGUCAGAUUCUGGUGAAUCUGCGAAUUCUGCUGUAUAUCUC [A21G C34G] | 0.2
17 | UAACAGGGGGCCACAGCAGAGGCGUUCACGUCGCAGACCCUGUCAGAUUCUGGUGAAUCUGCGAAUUCUGCUGUAUAUCUC [A21G C37A] | 0.42

Row | Variant | self-cleavage
18 | UAACAGGGGGCCACAGCAGAGGCGUUCACGUCGCAGGCCCUGUCAGAUUCUGGUGAAUCUGCGAAUUCUGCUGUAUAUCUC [A21G C37G] | 0.19
19 | UAACAGGGGGCCACAGCAGAGGCGUUCACGUCGCAGUCCCUGUCAGAUUCUGGUGAAUCUGCGAAUUCUGCUGUAUAUCUC [A21G C37U] | 0.39
20 | UAACAGGGGGCCACAGCAGAGGCGUUCACGUCGCAGCACCUGUCAGAUUCUGGUGAAUCUGCGAAUUCUGCUGUAUAUCUC [A21G C38A] | 0.33
21 | UAACAGGGGGCCACAGCAGAGGCGUUCACGUCGCAGCGCCUGUCAGAUUCUGGUGAAUCUGCGAAUUCUGCUGUAUAUCUC [A21G C38G] | 0.26
22 | UAACAGGGGGCCACAGCAGAGGCGUUCACGUCGCAGCUCCUGUCAGAUUCUGGUGAAUCUGCGAAUUCUGCUGUAUAUCUC [A21G C38U] | 0.57
23 | UAACAGGGGGCCACAGCAGAGGCGUUCACGUCGCAGCCACUGUCAGAUUCUGGUGAAUCUGCGAAUUCUGCUGUAUAUCUC [A21G C39A] | 0.1
24 | UAACAGGGGGCCACAGCAGAGGCGUUCACGUCGCAGCCGCUGUCAGAUUCUGGUGAAUCUGCGAAUUCUGCUGUAUAUCUC [A21G C39G] | 0.37
25 | UAACAGGGGGCCACAGCAGAGGCGUUCACGUCGCAGCCUCUGUCAGAUUCUGGUGAAUCUGCGAAUUCUGCUGUAUAUCUC [A21G C39U] | 0.3
26 | UAACAGGGGGCCACAGCAGAGGCGUUCACGUCGCAGCCCAUGUCAGAUUCUGGUGAAUCUGCGAAUUCUGCUGUAUAUCUC [A21G C40A] | 0.26
27 | UAACAGGGGGCCACAGCAGAGGCGUUCACGUCGCAGCCCUUGUCAGAUUCUGGUGAAUCUGCGAAUUCUGCUGUAUAUCUC [A21G C40U] | 0.46
28 | UAACAGGGGGCCACAGCAGAGGCGUUCACGUCGCAGCCCCUGUAAGAUUCUGGUGAAUCUGCGAAUUCUGCUGUAUAUCUC [A21G C44A] | 0.18
29 | UAACAGGGGGCCACAGCAGAGGCGUUCACGUCGCAGCCCCUGUUAGAUUCUGGUGAAUCUGCGAAUUCUGCUGUAUAUCUC [A21G C44U] | 0.26
30 | UAACAGGGGGCCACAGCAGAGGCGUUCACGUCGCAGCCCCUGUCAGAUUAUGGUGAAUCUGCGAAUUCUGCUGUAUAUCUC [A21G C50A] | 0.57
31 | UAACAGGGGGCCACAGCAGAGGCGUUCACGUCGCAGCCCCUGUCAGAUUUUGGUGAAUCUGCGAAUUCUGCUGUAUAUCUC [A21G C50U] | 0.62
32 | UAACAGGGGGCCACAGCAGAGGCGUUCACGUCGCAGCCCCUGUCAGAUUCUGGUGAAUAUGCGAAUUCUGCUGUAUAUCUC [A21G C59A] | 0.31
33 | UAACAGGGGGCCACAGCAGAGGCGUUCACGUCGCAGCCCCUGUCAGAUUCUGGUGAAUUUGCGAAUUCUGCUGUAUAUCUC [A21G C59U] | 0.38
34 | UAACAGGGGGCCACAGCAGAGGCGUUCACGUCGCAGCCCCUGUCAGAUUCUGGUGAAUCUGAGAAUUCUGCUGUAUAUCUC [A21G C62A] | 0.2
